Test results reported in patent publication US20240199757A1 (UNIVERSITY OF CHICAGO, published 2024).

Experiments:
[1] = target: T1, human NT5E expressed on MDA-MB-231 cells (human, UniProt P21589 27-549); experiment: flow cytometry on MDA-MB-231 cells, 1 mM ATP
T1 construct: whole, on cells; also called NT5E-expressing MDA-MB-231 cells; CD73
T1 sequence (looked up): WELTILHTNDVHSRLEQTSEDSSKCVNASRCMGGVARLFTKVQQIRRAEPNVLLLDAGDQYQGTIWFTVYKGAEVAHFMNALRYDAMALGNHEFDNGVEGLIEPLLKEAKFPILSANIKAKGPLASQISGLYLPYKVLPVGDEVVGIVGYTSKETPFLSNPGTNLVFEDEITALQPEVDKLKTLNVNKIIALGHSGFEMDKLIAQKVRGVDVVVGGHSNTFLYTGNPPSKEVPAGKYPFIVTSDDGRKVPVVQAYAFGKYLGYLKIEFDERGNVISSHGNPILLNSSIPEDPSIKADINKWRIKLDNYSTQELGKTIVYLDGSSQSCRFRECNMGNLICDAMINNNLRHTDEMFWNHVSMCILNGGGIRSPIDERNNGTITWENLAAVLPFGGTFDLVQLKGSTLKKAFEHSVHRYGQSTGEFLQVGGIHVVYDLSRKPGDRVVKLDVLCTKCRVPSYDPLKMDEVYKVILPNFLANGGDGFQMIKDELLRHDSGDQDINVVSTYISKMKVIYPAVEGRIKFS
Description: Flow cytometry analysis of antibodies binding to human NT5E expressed on MDA-MB-231 cells in ATP-free condition (black) or in 1 mM ATP (red). Top panel: (left) 1780 Fab and (right) 1780 IgG titrations. […] Binding was measured at the indicated range of antibody concentrations and is expressed as mean±st. dev of median fluorescence intensity (MFI) of 1-2 replicates. Data were analyzed using OriginLab, and EC₅₀ values are shown next to the fitted curves.
Human MDA-MB-231 cells and murine 4T1 cells were grown to 90% confluency, detached with 5 mM EDTA for 15 min at 37° C. and then resuspended in 37° C. lx PBS (#10010031, Gibco) supplemented with 1% FBS and 1OpM ZnCl2. Separate working buffers (WB) of PBS and 1% FBS with or without fixed nucleotide concentrations were used throughout all washing steps to maintain constant condition. In 96-well plates (#3799, Costar), 0.2×10⁶ cells were added per well. The plates were spun at 500×g for 5 min and the supernatant was removed. Anti-NT5E antibodies were diluted to the desired concentration in 100 μL WB, added to the cells and the plates were incubated for 20 min at 37° C. Plates were spun and cells were washed twice with WB then spun a second time. Cells were stained with 100 μL of secondary antibody (Alexa Fluor 647 AffiniPure Goat Anti-Human IgG, F(ab′)2 fragment specific, #109-605-006, Jackson, 1:200) dilution and plates were incubated for 20 min at 37° C. Cells were washed twice with WB then fixed on ice with WB supplemented with 0.5% PFA. Fixing solution was removed by centrifugation and cells were resuspended in cold 1× PBS. Samples were analyzed by flow cytometry using CytoFLEX (Beckman Coulter) and mean fluorescence intensity (MFI) data was extracted using FlowJo software. Resulting binding data was plotted using OriginLab.

[2] = target: T2, Full-length human NT5E (recombinant, in-house) (human, UniProt P21589 27-549); experiment: ELISA, biotinylated NT5E on neutravidin plate, 1 mM ATP
T2 construct: also called hNT5E; hNT5EWT
T2 sequence: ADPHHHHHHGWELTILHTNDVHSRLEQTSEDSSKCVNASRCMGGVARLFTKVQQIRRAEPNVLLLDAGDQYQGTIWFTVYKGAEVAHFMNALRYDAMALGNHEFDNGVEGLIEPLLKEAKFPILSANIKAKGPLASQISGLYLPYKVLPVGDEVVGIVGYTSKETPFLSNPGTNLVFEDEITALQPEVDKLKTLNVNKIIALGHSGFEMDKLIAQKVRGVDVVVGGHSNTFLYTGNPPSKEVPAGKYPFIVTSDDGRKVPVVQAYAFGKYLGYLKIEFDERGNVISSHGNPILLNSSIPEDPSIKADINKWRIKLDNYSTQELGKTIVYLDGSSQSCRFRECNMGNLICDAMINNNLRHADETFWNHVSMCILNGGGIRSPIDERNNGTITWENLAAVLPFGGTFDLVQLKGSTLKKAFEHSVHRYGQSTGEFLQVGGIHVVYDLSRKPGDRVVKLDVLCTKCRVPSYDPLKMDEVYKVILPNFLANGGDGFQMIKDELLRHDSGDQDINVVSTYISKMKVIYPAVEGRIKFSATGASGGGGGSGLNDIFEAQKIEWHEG
Description: (B) Protein ELISA: Protein-based multipoint ELISA was performed to estimate the affinity of the generated Fabs and IgGs to NT5E. The binding of the Fabs and IgGs to the closed form of NT5E were determined in ELISA buffer (HBST) supplemented with 10 μM zinc chloride and 1 mM ATP while the binding of the same to open form of NT5E were determined in ELISA buffer (HBST) without any cofactors. A fixed concentration of the immobilized target (50 nM) on ELISA plate was incubated with 3-fold serial dilutions of the purified Fabs and IgGs starting from 3 μM and 1 μM respectively for 15 min. The plates were washed and were subsequently incubated with a secondary HRP-conjugated anti-protein L monoclonal antibody (#32420, ThermoFisher, 1:6000 dilution). As with phage ELISA, the plates were again washed, developed with TMB substrate and quenched with 1.0 M HCl, and absorbance (Abs450) was determined. To determine the affinity (EC50), the data were fitted with a non-linear, 4-parameter logistic curve in OriginLab.

[3] = target: T1, human NT5E expressed on MDA-MB-231 cells; experiment: cell-based or functional assay

| Binder | EC50 [1] [nM] | EC50 [2] [nM] | IC50 of NT5E phosphate production on MDA-MB-231 cells, +500 µM ATP [3] [nM] |
| --- | --- | --- | --- |
| 1789 Fab (Fab, V domains shown) VH: EVQLVESGGGLVQPGGSLRLSCAASGFNVSYSSIHWVRQAPGKGLEWVASISSSSGYTYYADSVKGRFTISADTSKNTAYLQMNSLRAEDTAVYYCARNYWGWYPFYYFAFDYWGQGTLVTV VL: DIQMTQSPSSLSASVGDRVTITCRASQSVSSAVAWYQQKPGKAPKLLIYSASSLYSGVPSRFSGSRSGTDFTLTISSLQPEDFATYYCQQGWDYPITFGQGTKVEIKR | 53 | 37 | 122 |
| 1789 IgG (antibody, V domains shown) VH: EVQLVESGGGLVQPGGSLRLSCAASGFNVSYSSIHWVRQAPGKGLEWVASISSSSGYTYYADSVKGRFTISADTSKNTAYLQMNSLRAEDTAVYYCARNYWGWYPFYYFAFDYWGQGTLVTVSS VL: DIQMTQSPSSLSASVGDRVTITCRASQSVSSAVAWYQQKPGKAPKLLIYSASSLYSGVPSRFSGSRSGTDFTLTISSLQPEDFATYYCQQGWDYPITFGQGTKVEIKR | 9.4 | 0.86 | 2.2 |
